T1: FcγRIIa R (human, UniProt P12318 34-217)
T1 construct: extracellular domain; also called FcgRIIa R type; 2aR
T1 sequence (looked up): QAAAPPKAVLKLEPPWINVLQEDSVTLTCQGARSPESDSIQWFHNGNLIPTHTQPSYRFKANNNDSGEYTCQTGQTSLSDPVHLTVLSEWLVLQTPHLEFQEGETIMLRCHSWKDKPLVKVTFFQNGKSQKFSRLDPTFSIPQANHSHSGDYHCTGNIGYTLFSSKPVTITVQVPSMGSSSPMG

B1: GpH7-B3 variant G237_19Q/GpL16-k0 (antibody, human IgG1, kappa)
heavy: not shown
light: DIVMTQSPLSLPVTPGEPASISCQASESLVHSNRNTYLHWYLQKPGQSPQLLIYKVSNRFSGVPDRFSGSGSGTDFTLKISRVEAEDVGVYYCSQNTHVPPTFGQGTKVEIERTVAAPSVFIFPPSDEQLKSGTASVVCLLNNFYPREAKVQWKVDNALQSGNSQESVTEQDSKDSTYSLSSTLTLSKADYEKHKVYACEVTHQGLSSPVTKSFNRGEC
notes: also called Ho Ab G237_19Q
B2: GpH7-B3 variant P238_03V/GpL16-k0 (antibody, human IgG1, kappa)
heavy: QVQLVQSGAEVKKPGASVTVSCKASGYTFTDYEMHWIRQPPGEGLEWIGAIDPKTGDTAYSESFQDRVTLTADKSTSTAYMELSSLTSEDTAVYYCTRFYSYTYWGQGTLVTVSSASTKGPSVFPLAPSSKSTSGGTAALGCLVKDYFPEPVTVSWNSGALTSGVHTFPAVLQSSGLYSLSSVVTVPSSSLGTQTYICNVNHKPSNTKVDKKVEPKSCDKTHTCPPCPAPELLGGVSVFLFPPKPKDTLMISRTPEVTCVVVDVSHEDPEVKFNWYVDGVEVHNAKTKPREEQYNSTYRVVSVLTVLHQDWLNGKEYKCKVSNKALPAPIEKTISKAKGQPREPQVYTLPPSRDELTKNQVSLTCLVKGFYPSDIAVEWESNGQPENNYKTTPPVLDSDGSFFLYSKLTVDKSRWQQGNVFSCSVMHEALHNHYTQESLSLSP
light: B1 light
notes: also called Ho Ab P238_03V
B3: GpH7-B3 variant L328_10E/GpL16-k0 (antibody, human IgG1, kappa)
heavy: not shown
light: B1 light
notes: also called Ho Ab L328_10E
B4: GpH7-B3 variant L234_09D/GpL16-k0 (antibody, human IgG1, kappa)
heavy: not shown
light: B1 light
notes: also called Ho Ab L234_09D
B5: GpH7-B3 variant I336_18N/GpL16-k0 (antibody, human IgG1, kappa)
heavy: not shown
light: B1 light
notes: also called Ho Ab I336_18N
B6: GpH7-B3 variant K334_19Q/GpL16-k0 (antibody, human IgG1, kappa)
heavy: not shown
light: B1 light
notes: also called Ho Ab K334_19Q
B7: GpH7-B3 variant K334_08L/GpL16-k0 (antibody, human IgG1, kappa)
heavy: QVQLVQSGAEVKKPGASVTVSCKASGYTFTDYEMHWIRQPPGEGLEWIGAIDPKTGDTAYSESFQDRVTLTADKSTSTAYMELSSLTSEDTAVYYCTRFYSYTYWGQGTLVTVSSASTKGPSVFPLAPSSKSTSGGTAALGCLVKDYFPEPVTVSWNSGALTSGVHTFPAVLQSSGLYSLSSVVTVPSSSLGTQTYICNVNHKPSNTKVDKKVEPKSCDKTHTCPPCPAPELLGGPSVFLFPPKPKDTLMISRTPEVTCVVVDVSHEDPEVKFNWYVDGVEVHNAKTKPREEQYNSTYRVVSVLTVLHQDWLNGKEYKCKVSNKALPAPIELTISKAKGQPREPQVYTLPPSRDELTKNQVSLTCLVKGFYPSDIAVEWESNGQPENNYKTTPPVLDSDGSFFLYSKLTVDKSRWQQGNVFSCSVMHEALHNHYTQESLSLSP
light: B1 light
notes: also called Ho Ab K334_08L
B8: GpH7-B3 variant H268_01G/GpL16-k0 (antibody, human IgG1, kappa)
heavy: not shown
light: B1 light
notes: also called Ho Ab H268_01G
B9: GpH7-B3 variant H268_12R/GpL16-k0 (antibody, human IgG1, kappa)
heavy: not shown
light: B1 light
notes: also called Ho Ab H268_12R
B10: GpH7-B3 variant K326_07I/GpL16-k0 (antibody, human IgG1, kappa)
heavy: not shown
light: B1 light
notes: also called Ho Ab K326_07I
B11: GpH7-B3 variant K326_12R/GpL16-k0 (antibody, human IgG1, kappa)
heavy: not shown
light: B1 light
notes: also called Ho Ab K326_12R
B12: GpH7-B3 variant L235_20W/GpL16-k0 (antibody, human IgG1, kappa)
heavy: not shown
light: B1 light
notes: also called Ho Ab L235_20W
B13: GpH7-B3 variant I332_14T/GpL16-k0 (antibody, human IgG1, kappa)
heavy: not shown
light: B1 light
notes: also called Ho Ab I332_14T
B14: GpH7-B3 variant K326_08L/GpL16-k0 (antibody, human IgG1, kappa)
heavy: not shown
light: B1 light
notes: also called Ho Ab K326_08L
B15: GpH7-B3 variant N325_03V/GpL16-k0 (antibody, human IgG1, kappa)
heavy: not shown
light: B1 light
notes: also called Ho Ab N325_03V
B16: GpH7-B3 variant L235_04F/GpL16-k0 (antibody, human IgG1, kappa)
heavy: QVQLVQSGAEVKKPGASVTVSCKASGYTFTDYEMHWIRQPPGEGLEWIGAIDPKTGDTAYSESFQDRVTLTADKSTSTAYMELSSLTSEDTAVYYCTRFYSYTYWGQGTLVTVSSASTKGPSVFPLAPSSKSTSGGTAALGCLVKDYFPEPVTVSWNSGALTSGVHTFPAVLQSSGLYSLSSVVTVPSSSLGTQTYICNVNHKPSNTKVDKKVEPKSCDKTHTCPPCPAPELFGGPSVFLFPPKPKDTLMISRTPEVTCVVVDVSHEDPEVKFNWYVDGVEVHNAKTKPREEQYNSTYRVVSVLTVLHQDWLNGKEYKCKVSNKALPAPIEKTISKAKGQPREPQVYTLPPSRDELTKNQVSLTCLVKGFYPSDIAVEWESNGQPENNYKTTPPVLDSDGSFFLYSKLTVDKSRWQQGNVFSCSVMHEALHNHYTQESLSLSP
light: B1 light
notes: also called Ho Ab L235_04F
B17: GpH7-B3 variant N325_07I/GpL16-k0 (antibody, human IgG1, kappa)
heavy: not shown
light: B1 light
notes: also called Ho Ab N325_07I
B18: GpH7-B3 variant L328_09D/GpL16-k0 (antibody, human IgG1, kappa)
heavy: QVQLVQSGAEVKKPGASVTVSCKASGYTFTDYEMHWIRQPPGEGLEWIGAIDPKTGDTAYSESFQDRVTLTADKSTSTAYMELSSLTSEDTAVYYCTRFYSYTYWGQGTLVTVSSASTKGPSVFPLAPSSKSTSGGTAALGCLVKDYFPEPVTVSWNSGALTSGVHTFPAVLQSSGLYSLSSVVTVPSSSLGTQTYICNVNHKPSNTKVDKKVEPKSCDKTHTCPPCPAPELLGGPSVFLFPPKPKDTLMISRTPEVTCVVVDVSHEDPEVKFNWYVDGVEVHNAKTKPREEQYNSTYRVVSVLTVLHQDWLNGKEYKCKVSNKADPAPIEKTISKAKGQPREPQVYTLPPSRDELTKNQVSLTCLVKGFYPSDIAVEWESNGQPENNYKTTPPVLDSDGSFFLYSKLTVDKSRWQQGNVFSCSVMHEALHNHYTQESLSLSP
light: B1 light
notes: also called Ho Ab L328_09D
B19: GpH7-B3 variant L234_20W/GpL16-k0 (antibody, human IgG1, kappa)
heavy: not shown
light: B1 light
notes: also called Ho Ab L234_20W
B20: GpH7-B3 variant H268_03V/GpL16-k0 (antibody, human IgG1, kappa)
heavy: not shown
light: B1 light
notes: also called Ho Ab H268_03V
B21: GpH7-B3 variant L235_15Y/GpL16-k0 (antibody, human IgG1, kappa)
heavy: not shown
light: B1 light
notes: also called Ho Ab L235_15Y
B22: GpH7-B3 variant K334_04F/GpL16-k0 (antibody, human IgG1, kappa)
heavy: not shown
light: B1 light
notes: also called Ho Ab K334_04F
B23: GpH7-B3 variant L234_04F/GpL16-k0 (antibody, human IgG1, kappa)
heavy: not shown
light: B1 light
notes: also called Ho Ab L234_04F
B24: GpH7-B3 variant N325_20W/GpL16-k0 (antibody, human IgG1, kappa)
heavy: not shown
light: B1 light
notes: also called Ho Ab N325_20W
B25: GpH7-B3 variant H268_05P/GpL16-k0 (antibody, human IgG1, kappa)
heavy: not shown
light: B1 light
notes: also called Ho Ab H268_05P
B26: GpH7-B3 variant N325_13S/GpL16-k0 (antibody, human IgG1, kappa)
heavy: not shown
light: B1 light
notes: also called Ho Ab N325_13S
B27: GpH7-B3 variant K334_20W/GpL16-k0 (antibody, human IgG1, kappa)
heavy: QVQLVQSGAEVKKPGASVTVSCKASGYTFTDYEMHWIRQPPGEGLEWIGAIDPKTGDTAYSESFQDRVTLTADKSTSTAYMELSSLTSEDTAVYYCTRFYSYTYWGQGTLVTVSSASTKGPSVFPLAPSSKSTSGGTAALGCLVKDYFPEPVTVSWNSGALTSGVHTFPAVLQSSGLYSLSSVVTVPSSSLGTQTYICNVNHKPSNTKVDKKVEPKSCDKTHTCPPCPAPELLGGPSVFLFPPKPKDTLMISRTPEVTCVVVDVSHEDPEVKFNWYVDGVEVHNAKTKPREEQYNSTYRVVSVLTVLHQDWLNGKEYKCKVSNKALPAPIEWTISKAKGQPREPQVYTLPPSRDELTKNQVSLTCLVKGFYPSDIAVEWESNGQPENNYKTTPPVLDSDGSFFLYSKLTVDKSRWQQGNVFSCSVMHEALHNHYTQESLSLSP
light: B1 light
notes: also called Ho Ab K334_20W
B28: GpH7-B3 variant H268_15Y/GpL16-k0 (antibody, human IgG1, kappa)
heavy: not shown
light: B1 light
notes: also called Ho Ab H268_15Y
B29: GpH7-B3 variant N325_08L/GpL16-k0 (antibody, human IgG1, kappa)
heavy: not shown
light: B1 light
notes: also called Ho Ab N325_08L
B30: GpH7-B3 variant P238_04F/GpL16-k0 (antibody, human IgG1, kappa)
heavy: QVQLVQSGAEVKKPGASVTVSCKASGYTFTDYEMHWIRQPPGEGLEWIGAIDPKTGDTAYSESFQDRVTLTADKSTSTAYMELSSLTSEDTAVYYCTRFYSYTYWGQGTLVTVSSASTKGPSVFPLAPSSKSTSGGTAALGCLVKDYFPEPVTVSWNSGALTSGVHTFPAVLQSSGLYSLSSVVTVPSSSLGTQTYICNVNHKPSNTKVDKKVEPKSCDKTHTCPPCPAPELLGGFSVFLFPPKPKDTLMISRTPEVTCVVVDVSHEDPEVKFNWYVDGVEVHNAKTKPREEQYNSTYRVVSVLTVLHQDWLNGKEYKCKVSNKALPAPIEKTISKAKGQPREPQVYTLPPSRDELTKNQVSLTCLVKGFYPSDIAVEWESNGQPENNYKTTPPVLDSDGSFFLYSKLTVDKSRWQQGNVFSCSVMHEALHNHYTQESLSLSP
light: B1 light
notes: also called Ho Ab P238_04F
B31: GpH7-B3 variant N325_01G/GpL16-k0 (antibody, human IgG1, kappa)
heavy: not shown
light: B1 light
notes: also called Ho Ab N325_01G
B32: GpH7-B3 variant I332_06M/GpL16-k0 (antibody, human IgG1, kappa)
heavy: not shown
light: B1 light
notes: also called Ho Ab I332_06M
B33: GpH7-B3 variant K326_03V/GpL16-k0 (antibody, human IgG1, kappa)
heavy: not shown
light: B1 light
notes: also called Ho Ab K326_03V
B34: GpH7-B3 variant K334_05P/GpL16-k0 (antibody, human IgG1, kappa)
heavy: not shown
light: B1 light
notes: also called Ho Ab K334_05P
B35: GpH7-B3 variant K326_04F/GpL16-k0 (antibody, human IgG1, kappa)
heavy: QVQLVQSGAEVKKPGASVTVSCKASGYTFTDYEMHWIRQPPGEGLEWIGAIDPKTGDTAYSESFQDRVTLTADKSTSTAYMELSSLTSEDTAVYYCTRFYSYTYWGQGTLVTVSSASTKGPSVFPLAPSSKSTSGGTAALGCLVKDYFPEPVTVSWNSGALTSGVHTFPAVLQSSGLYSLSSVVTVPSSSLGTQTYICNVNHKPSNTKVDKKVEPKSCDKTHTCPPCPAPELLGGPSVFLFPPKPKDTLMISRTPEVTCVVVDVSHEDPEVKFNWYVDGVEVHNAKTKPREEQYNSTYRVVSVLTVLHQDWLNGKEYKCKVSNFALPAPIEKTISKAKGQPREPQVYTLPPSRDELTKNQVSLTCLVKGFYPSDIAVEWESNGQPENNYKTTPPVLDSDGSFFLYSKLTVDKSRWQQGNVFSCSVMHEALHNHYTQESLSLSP
light: B1 light
notes: also called Ho Ab K326_04F
B36: GpH7-B3 variant I336_06M/GpL16-k0 (antibody, human IgG1, kappa)
heavy: not shown
light: B1 light
notes: also called Ho Ab I336_06M
B37: GpH7-B3 variant K326_15Y/GpL16-k0 (antibody, human IgG1, kappa)
heavy: not shown
light: B1 light
notes: also called Ho Ab K326_15Y
B38: GpH7-B3 variant H268_20W/GpL16-k0 (antibody, human IgG1, kappa)
heavy: not shown
light: B1 light
notes: also called Ho Ab H268_20W
B39: GpH7-B3 variant N325_15Y/GpL16-k0 (antibody, human IgG1, kappa)
heavy: not shown
light: B1 light
notes: also called Ho Ab N325_15Y
B40: GpH7-B3 variant N325_14T/GpL16-k0 (antibody, human IgG1, kappa)
heavy: not shown
light: B1 light
notes: also called Ho Ab N325_14T
B41: GpH7-B3 variant N325_09D/GpL16-k0 (antibody, human IgG1, kappa)
heavy: not shown
light: B1 light
notes: also called Ho Ab N325_09D
B42: GpH7-B3 variant L328_13S/GpL16-k0 (antibody, human IgG1, kappa)
heavy: not shown
light: B1 light
notes: also called Ho Ab L328_13S
B43: GpH7-B3 variant I336_08L/GpL16-k0 (antibody, human IgG1, kappa)
heavy: not shown
light: B1 light
notes: also called Ho Ab I336_08L
B44: GpH7-B3 variant K334_12R/GpL16-k0 (antibody, human IgG1, kappa)
heavy: not shown
light: B1 light
notes: also called Ho Ab K334_12R
B45: GpH7-B3 variant K326_18N/GpL16-k0 (antibody, human IgG1, kappa)
heavy: not shown
light: B1 light
notes: also called Ho Ab K326_18N
B46: GpH7-B3 variant N325_10E/GpL16-k0 (antibody, human IgG1, kappa)
heavy: not shown
light: B1 light
notes: also called Ho Ab N325_10E
B47: GpH7-B3 variant K326_20W/GpL16-k0 (antibody, human IgG1, kappa)
heavy: not shown
light: B1 light
notes: also called Ho Ab K326_20W
B48: GpH7-B3 variant G237_20W/GpL16-k0 (antibody, human IgG1, kappa)
heavy: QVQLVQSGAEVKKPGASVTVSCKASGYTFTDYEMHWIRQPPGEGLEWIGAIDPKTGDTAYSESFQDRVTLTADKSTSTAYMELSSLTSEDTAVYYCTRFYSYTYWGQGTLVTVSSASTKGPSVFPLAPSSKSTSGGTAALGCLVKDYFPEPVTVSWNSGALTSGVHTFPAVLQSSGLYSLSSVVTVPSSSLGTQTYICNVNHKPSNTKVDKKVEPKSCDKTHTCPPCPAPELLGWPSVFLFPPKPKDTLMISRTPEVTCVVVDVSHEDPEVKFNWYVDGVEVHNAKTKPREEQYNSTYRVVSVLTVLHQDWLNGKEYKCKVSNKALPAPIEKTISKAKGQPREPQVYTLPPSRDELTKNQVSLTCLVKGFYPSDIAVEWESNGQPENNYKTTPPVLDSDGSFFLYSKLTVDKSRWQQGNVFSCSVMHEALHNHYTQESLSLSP
light: B1 light
notes: also called Ho Ab G237_20W
B49: GpH7-B3 variant H268_11K/GpL16-k0 (antibody, human IgG1, kappa)
heavy: not shown
light: B1 light
notes: also called Ho Ab H268_11K
B50: GpH7-B3 variant K334_02A/GpL16-k0 (antibody, human IgG1, kappa)
heavy: not shown
light: B1 light
notes: also called Ho Ab K334_02A
B51: GpH7-B3 variant K334_13S/GpL16-k0 (antibody, human IgG1, kappa)
heavy: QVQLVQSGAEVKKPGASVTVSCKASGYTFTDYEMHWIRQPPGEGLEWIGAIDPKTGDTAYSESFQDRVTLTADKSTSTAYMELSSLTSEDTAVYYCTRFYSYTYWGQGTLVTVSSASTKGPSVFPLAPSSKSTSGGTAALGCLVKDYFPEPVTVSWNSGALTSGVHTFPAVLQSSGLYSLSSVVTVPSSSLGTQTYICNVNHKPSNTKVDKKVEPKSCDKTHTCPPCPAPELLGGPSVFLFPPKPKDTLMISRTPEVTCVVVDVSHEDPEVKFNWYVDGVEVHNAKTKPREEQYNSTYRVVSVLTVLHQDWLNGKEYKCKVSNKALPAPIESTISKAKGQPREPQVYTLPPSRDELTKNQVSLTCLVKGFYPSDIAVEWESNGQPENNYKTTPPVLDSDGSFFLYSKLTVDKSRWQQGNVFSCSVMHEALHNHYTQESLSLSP
light: B1 light
notes: also called Ho Ab K334_13S
B52: GpH7-B3 variant L235_09D/GpL16-k0 (antibody, human IgG1, kappa)
heavy: not shown
light: B1 light
notes: also called Ho Ab L235_09D
B53: GpH7-B3 variant K334_10E/GpL16-k0 (antibody, human IgG1, kappa)
heavy: not shown
light: B1 light
notes: also called Ho Ab K334_10E
B54: GpH7-B3 variant L328_14T/GpL16-k0 (antibody, human IgG1, kappa)
heavy: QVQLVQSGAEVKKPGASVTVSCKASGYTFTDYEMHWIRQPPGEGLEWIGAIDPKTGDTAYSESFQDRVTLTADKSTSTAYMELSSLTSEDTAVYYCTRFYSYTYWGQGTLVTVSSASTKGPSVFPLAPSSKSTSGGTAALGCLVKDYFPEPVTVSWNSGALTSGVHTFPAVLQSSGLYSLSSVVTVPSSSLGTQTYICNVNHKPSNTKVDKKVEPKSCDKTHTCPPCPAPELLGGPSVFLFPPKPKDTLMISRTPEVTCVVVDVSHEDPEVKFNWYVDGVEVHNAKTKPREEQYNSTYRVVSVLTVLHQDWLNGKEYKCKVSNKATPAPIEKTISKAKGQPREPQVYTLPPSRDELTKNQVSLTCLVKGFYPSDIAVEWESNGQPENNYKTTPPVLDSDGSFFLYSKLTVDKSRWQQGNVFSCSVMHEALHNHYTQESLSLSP
light: B1 light
notes: also called Ho Ab L328_14T
B55: GpH7-B3 variant L234_10E/GpL16-k0 (antibody, human IgG1, kappa)
heavy: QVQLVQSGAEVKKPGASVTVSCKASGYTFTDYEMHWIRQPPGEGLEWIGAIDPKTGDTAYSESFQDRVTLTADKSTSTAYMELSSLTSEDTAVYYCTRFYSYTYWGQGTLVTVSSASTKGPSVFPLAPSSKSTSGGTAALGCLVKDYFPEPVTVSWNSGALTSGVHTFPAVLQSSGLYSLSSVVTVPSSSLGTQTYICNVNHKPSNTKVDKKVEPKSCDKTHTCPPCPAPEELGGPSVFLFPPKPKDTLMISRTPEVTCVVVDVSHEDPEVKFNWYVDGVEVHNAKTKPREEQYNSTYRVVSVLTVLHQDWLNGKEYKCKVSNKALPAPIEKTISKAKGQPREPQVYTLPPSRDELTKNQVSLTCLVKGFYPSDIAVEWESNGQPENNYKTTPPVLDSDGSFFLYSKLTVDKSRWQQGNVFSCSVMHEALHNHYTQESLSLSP
light: B1 light
notes: also called Ho Ab L234_10E
B56: GpH7-B3 variant L328_02A/GpL16-k0 (antibody, human IgG1, kappa)
heavy: not shown
light: B1 light
notes: also called Ho Ab L328_02A

What follows are binders tested against T1, FcγRIIa R (assay: SPR Biacore; vs GpH7-B3/GpL16-k0 =100).
Protocol: Analysis of interaction between objective antibody and the FcγR was carried out using Biacore T100 (GE Healthcare). HBS-EP+ (GE Healthcare) was used as the running buffer, and the measurement temperature was set to 25° C. Chips produced by immobilizing the antigen peptide by the amine coupling method to a Series S Sencor Chip CM5 (GE Healthcare), or alternatively, chips produced by allowing preliminarily biotinylated antigen peptides to interact with and immobilize onto a Series S Sensor Chip SA (certified) (GE Healthcare) were used. Antibodies of interest were captured onto an antigen peptide-immobilized chip, and allowed to interact to each FcγR diluted with running buffer. To regenerate and repeatedly use the chip, the antibodies captured on the chip were washed off by reacting 10 mM glycine-HCl, pH 1.5.
The FcγR-binding activity of each antibody was assessed primarily using as an indicator the FcγR-binding activity and dissociation constant for FcγR.

Ho/Con_2aR	Binder
14.3 % of control	B1
116 % of control	B2
48.1 % of control	B3
42.8 % of control	B4
94.5 % of control	B5
108 % of control	B6
105 % of control	B7
122 % of control	B8
98.5 % of control	B9
133 % of control	B10
95.7 % of control	B11
114 % of control	B12
99.6 % of control	B13
131 % of control	B14
37.8 % of control	B15
98.9 % of control	B16
77 % of control	B17
68.8 % of control	B18
53.8 % of control	B19

Ho/Con_2aR	Binder
105 % of control	B20
111 % of control	B21
110 % of control	B22
43.3 % of control	B23
56 % of control	B24
95.9 % of control	B25
126 % of control	B26
96.4 % of control	B27
106 % of control	B28
95 % of control	B29
146 % of control	B30
26.7 % of control	B31
105 % of control	B32
139 % of control	B33
102 % of control	B34
133 % of control	B35
96.4 % of control	B36
134 % of control	B37
110 % of control	B38

Ho/Con_2aR	Binder
42.6 % of control	B39
60.2 % of control	B40
74.8 % of control	B41
108 % of control	B42
105 % of control	B43
110 % of control	B44
113 % of control	B45
49.9 % of control	B46
120 % of control	B47
107 % of control	B48
93.4 % of control	B49
100 % of control	B50
106 % of control	B51
73 % of control	B52
106 % of control	B53
118 % of control	B54
39.9 % of control	B55
97 % of control	B56

— patent publication US20180155451A1 (published 2018)
